Data published in PMC8244255 (Current Research in Structural Biology, 2021).

Tests used:
Full-length human CaM = Full-length human CaM (Homo sapiens, UniProt P0DP23); test: ITC of CK peptides with full-length CaM; format: binding
[1] = target: C-lobe fragment (CaM 76–146) (Homo sapiens, UniProt P0DP23); test: ITC of CK peptides with C-lobe fragment of CaM; format: binding; conditions: C-lobe compared to N-lobe
[2] = target: Calmodulin N-terminal globular domain (N-lobe fragment, sequence 1-75) (human, UniProt P0DP23 1-75); test: ITC
[3] = target: Calmodulin C-terminal globular domain (C-lobe fragment, sequence 76-146) (human, UniProt P0DP23 76-146); test: ITC

Row | stoichiometry n (Full-length human CaM; presence of Ca2+) | affinity for C-lobe relative to N-lobe (times higher) [1] | binding to CaM (Full-length human CaM; at any solution conditions) | stoichiometry N [2] [peptide per fragment] | stoichiometry N [3] [peptide per fragment] | Molecule
1 | 2 | ca. 10 times |  |  |  | Ac-NLGKHEKFSEVLKRLRLQ-NH2 [CKB peptide]
2 |  |  | No binding could be detected |  |  | AcNH-LKRLRLQKRGTGGVDTAA-CONH2 [peptide covering CKB residues 312–329]
3 |  |  |  | 1 | 1 | Ac-NLGKHEKFSEVLKRLRLQ-NH2 [CKB peptide (human brain-type creatine kinase residues 301-318)]
4 |  |  |  | 1 | 1 | Ac-HLSKHPKFEEILTRLRLQ-NH2 [CKM peptide (human muscle-type creatine kinase residues 301-318)]
